According to publication PMC11612773 (2024):

B1: recombinant Arabidopsis dehydrin LEA14 (AT2G21490) with carboxy-terminal hexahistidyl tag (natural protein)
chain: MADLRDEKGNPIHLTDTQGNPIVDLTDEHGNPMYLTGVVSSTPQHKESTTSDIAEHPTSTVGETHPAAAPAGAGAATAATATGVSAGTGATTTGQQHHGSLEEHLRRSGSSSSSSSEDDGQGGRRKKSIKEKIKEKFGSGKHKDEQTPATATTTGPATTDQPHEKKGILEKIKDKLPGHHNHNHP
B2: recombinant soybean dehydrin GmPM12 (Glyma.04G009900.1) with carboxy-terminal hexahistidyl tag (natural protein)
chain: MAEAQLRDQHGNPVPLTDQYGNPVILTDERGNPVQLTGVATTATGTAGSGFGSYGTGAYGGGASATTVADLLATQPRSGREARELRRSSSSSSSSSEDDGQGGRRKKGVKDKIKEKLPGVGGGNNNKEHAHTTTAPTTATNHPADQHEKKGIMERIKEKLPGHHTHLE

Biological target: the molecule itself

| Protein | Kd |
| --- | --- |
| B1 | 13.3 µM |
| B2 | 6.8 µM |
